Experiment: soluble on expression in E. coli; label from the status in PepcDB or PDB records
In the case of “MFRQLKKNLVATLIAAMTIGQVAPAFADSADTLPDMGTSAGSTLSIGQEMQMGDYYVRQLRGSAPLINDPLLTQYINSLGMRLVSHANSVKTPFHFFLINNDEINAFAFFGGNVVLHSALFRYSDNESQLASVMAHEISHVTQRHLARAMEDQQRSAPLTWVGALGSILLAMASPQAGMAALTGTLAGTRQGMISFTQQNEQEADRIGIQVLQRSGFDPQAMPTFLEKLLDQARYSSRPPEILLTHPLPESRLADARNRANQMRPMVVQSSEDFYLAKARTLGMYNSGRNQLTSDLLDEWAKGNVRQQRAAQYGRALQAMEANKYDEARKTLQPLLAAEPGNAWYLDLATDIDLGQNKANEAINRLKNARDLRTNPVLQLNLANAYLQGGQPQEAANILNRYTFNNKDDSNGWDLLAQAEAALNNRDQELAARAEGYALAGRLDQAISLLSSASSQVKLGSLQQARYDARIDQLRQLQERFKPYTKMLEHHHHHH”, the “soluble on expression in E. coli” value is reported as “soluble”.
For “MGHHHHHHSHVAEGQEPAEFWDLLGGKTPYANDKRLQQEILDVQSRLFECSNKTGQFVVTEITDFTQDDLNPTDVMLLDTWDQVFLWIGAEANATEKESALATAQQYLHTHPSGRDPDTPILIIKQGFEPPIFTGWFLAWDPNIWSAGKTYEQLKEELGDAAAIMRITADMKNATLSLNSNDSEPKYYPIAVLLKNQNQELPEDV”, the “soluble on expression in E. coli” value was “soluble”.
For “MSLTGGLFGAKPAGSTTGGLFGANTSTQQPAATQGSGLFGAKPTGTGLFGGQTQGSTTSGASAGGLFGKSANPAPGGAGLFGNTAQSNSVSSNTGGLFGSKPAATGGLFGGQPSAPLSTFGQNPATTSLQTPGTGSLFGAKPVSTIAPNTASQMQQQTGISTTNPYGTNELFTRITIPESITAPSQPRFTKVNTDTKATSLNTAYKLNPKPLFSKGSLPSASIAHATPSIDKAPQNTDKSDNETTLVKFGSSLFNPETDEALITADELLFNPDRKSFKTLLINKKKVNEALLNEKSTSPDKDIKRITFNEKSLLKDEDSVRSSIFDNVLETPTNTENKLSEASSVDHDFNERQEVSRPDLKGDLMPNGISKLPGVKGSDFTQMENGYYISPSLDTLASMSLFQLSSVTNFVVGHKDHGYIEFMEPVNLTDIPLTLICGGIIEFRPRACIVKSGNEAGFHGKGFNVRARIVCYKCFPLDKSTRKPVTNPDHALVKNHIKKFKSMPNCKFESYDPKTGTYVFAVDNAEGHHHHHH”, the “soluble on expression in E. coli” value was “soluble”.
With “RSLQLDKLVNEMTQHYENSVPEDLTVHVGDIVAAPLPTNGSWYRARVLGTLENGNLDLYFVDFGDNGDCPLKDLRALRSDFLSLPFQAIECSLARIA” the “soluble on expression in E. coli” value was “soluble”.
With “MSIKKSPVYNVIAVPVEKVQANDYNPNVVAPPEMRLLELSIWEDGFTMPCVCYYDKEKDVYILVDGFHRYSVLKTSKRIFQRENGMLPIVVIEKDLSNRMSSTIRHNRARGTHN” the “soluble on expression in E. coli” value was “soluble”.
In the case of “VSAASLSKSAPAEPQPGPPQPAAGPQALPAIGGLTPFSSVDWPGQLAAVVFIAGCPWRCHYCHNPHLQERARGLDWREVLDFLGRRRNLLDAVVFSGGEPLSEPRLPQLIDAARALGLRIGLHTGGIYPARFAEVLPRLDWVGLDIKTTAPRYDALTGRRGSAAPVDACLDLLLRSHCAFECRTTWHPDWLPEPQLLALAQSLCSRGVKHYAIQAYRSAPGTLATALPSEATQHALAACFSSFSCR”, the “soluble on expression in E. coli” value is reported as “soluble”.
In the case of “MEYHMGNTMTKAIYDKFKSATPYGNKVATGPTPTEAVDITVSVGGFKVGDQNYPINPKITFTNNTGQAIPGGTEFQFDIPVSAPDNAKDQSGGGLKVIASGHTRANNIGGLDGVMHRVSFSLPAWKDLPAGGTYELDMVYYLPISGPANYSVISGGKEFAFKFEQPDLPIGDLNALEHHHHHH”, the “soluble on expression in E. coli” value is reported as “soluble”.
In the case of “MKRDGHTHTEFCPHGTHDDVEEMILKAIELDFDEYSIVEHAPLSSEFMKNTAGNQEAVTTASMSMSDLPYYFKKMNQMKKKYASDLLIHIGFEVDYLIGYEDFTRDFLNEYGPQTDDGVLSLHFLEGQGGFRSIDFTAEDYNEGIVQFYGGFEQAQLVYLAGVKQSIEADLGAFKPRRIGHISLCQKFQQFFGADGRDFTAEVIAEFEAILALVKKRGYELDFNTAGLFKPLCKETYPPKEIVTLARALEIPFVYGSDSHGVADIGRGYNTYCQKLEHHHHHH”, the “soluble on expression in E. coli” value is reported as “soluble”.
With “MGHHHHHHSHMAVEDEGLRVFQSVKIKIGEAKNLPSYPGPSKMRDCYCTVNLDQEEVFRTKIVEKSLCPFYGEDFYCEIPRSFRHLSFYIFDRDVFRRDSIIGKVAIQKEDLQKYHNRDTWFQLQHVDADSEVQGKVHLELRLSEVITDTGVVCHKLATRIVECQGLPIVNGQCDPYATVTLAGPFRSEAKKTKV” the “soluble on expression in E. coli” value was “not soluble”.
For “MGSDKIHHHHHHMIPFHDRPFAEYLVEMLRGQGFRRILFLLGYLPDKVTEHFGDGSRFGVEIEYAVSPVEDETGTRLRRVKDRLDDIFVLLYCDNYWPMPFAAMWERYCRLGVEAMVTVYRNRDGYTRDNLRVDDDGLLALYDKSRTAPGLAGVDIGFFILTRAVIDLIPEGGNPSFEKSVYPVLVERRQLAAFETDHRYYSVGSHERLPLTEAFLARNKTVLLDRDGTLNLRMPRAEYVRSWADWQWLPGAREALAELARADYRIILITNQPGLARGALDQAALDAIHGRMIEETQAAGGRIDHIYYCPHNWDEGCDCRKPRPGMLFQAQRDFHLDLSRVTFIGDDDRDGEAAQAAGAPFLQVTESYSLLDAVHDLLAADHSNPVTGKCPD”, the “soluble on expression in E. coli” value was “not soluble”.
For “MTSRSNSGPGIQRRRGAIKHARVHEIRGHQFVATFFRQPHFCSLCSDFMWGLNKQGYQCQLCSAAVHKKCHEKVIMQCPGSAKNTKETMALKERFKVDIPHRFKTYNFKSPTFCDHCGSMLYGLFKQGLRCEVCNVACHHKCERLMSNLCGVNQKQLSEMYHEIKRGTHATASCPPNIANLHLNGETSKNNGSLPNKLKNLFKSHQYSVEEQKETDEYMDNIWGGGDGPVKKFALPHFNLLKVLGKGSFGKVMLVELKGKNEFYAMKCLKKDVILEDDDTECTYIERRVLILASQCPFLCQLFCSFQTNEYLFFVMEYLNGGDLMHHIQQIKKFDEARTRFYACEIVVALQFLHTNNIIYRDLKLDNVLLDCDGHIKLADFGMAKTEMNRENGMASTFCGTPDYISPEIIKGQLYNEAVDFWSFGVLMYEMLVGQSPFHGEGEDELFDSILNERPYFPKTISKEAAKCLSALFDRNPNTRLGMPECPDGPIRQHCFFRGVDWKRFENRQVPPPFKPNIKSNSDASNFDDDFTNEKAALTPVHDKNLLASIDPEAFLNFSYTNPHFSK”, the “soluble on expression in E. coli” value was “not soluble”.
For “MHHHHHHKSTKILILGAGPAGFSAAKAALGKCDDITMINSEKYLPYYRPRLNEIIAKNKSIDDILIKKNDWYEKNNIKVITSEFATSIDPNNKLVTLKSGEKIKYEKLIIASGSIANKIKVPHADEIFSLYSYDDALKIKDECKNKGKAFIIGGGILGIELAQAIIDSGTPASIGIILEYPLERQLDRDGGLFLKDKLDRLGIKIYTNSNFEEMGDLIRSSCVITAVGVKPNLDFIKDTEIASKRGILVNDHMETSIKDIYACGDVAEFYGKNPGLINIANKQGEVAGLNACGEDASYSEIIPSPILKVSGISIISCGDIENNKPSKVFRSTQEDKYIVCMLKENKIDAAAVIGDVSLGTKLKKAIDSSKSFDNISSLDAILNNL”, the “soluble on expression in E. coli” value was “soluble”.
In the case of “MVRVKRSQLREGCVLAEDVLGKTKRPIIPKNTVITKPLLLVLEKFLVEEVDVEPLLANGEPFPNVDSASTAAAKQPMAFYLEAVQRYKTWFQSWQAGLPVDIGEIRGVIISLFERMAGQKRELLMLHHYATKDEYLHHHAVSVGLLAGFLAMQLGYSEGECHQIALAGVLADCGMAKVSKRILTNPSALTEAEFNEVKQHPVFSYRMVQKIPALNHGAKLAVLQHHERNDGSGYPLGVKAERIHPYSQIVAVADVYHAMTSERLYRRKQSPFRAIETMQREQFGKLSTEAVAALVNNLIGLQTGAVVKLSNGEMAEVMFIPSDEPARPIVKIIETGQLLSLSVQRDIYIEEMVQG”, the “soluble on expression in E. coli” value is reported as “not soluble”.
With “MQRVVVAIDAKRVDGEFMVFTHSGKKNTGILLRDWVVEVEKRGAGEILLTSIDRDGTKSGYDTEMIRFVRPLTTLPIIASGGAGKMEHFLEAFLAGADKALAASVFHFREIDMRELKEYLKKHGGSGQAVVVAIDAKRVDGEFMVFTHSGKKNTGILLRDWVVEVEKRGAGEILLTSIDRDGTKSGYDTEMIRFVRPLTTLPIIASGGAGKMEHFLEAFLAGADAALAASVFHFREIDMRELKEYLKKHGVNVRLEGLLEHHHHHH” the “soluble on expression in E. coli” value was “soluble”.
In the case of “AHHHHHHGSERAFIEWYPRGYGVAFKIKKKIYEKLSKYQKIEVYETEGFGRLLALDGTVQLVTLGERSYHEPLVHPAMLAHPKPKRVLVIGGGDGGTVREVLQHDVDEVIMVEIDEDVIMVSKDLIKIDNGLLEAMLNGKHEKAKLTIGDGFEFIKNNRGFDVIIADSTDPVGPAKVLFSEEFYRYVYDALNNPGIYVTQAGSVYLFTDELISAYKEMKKVFDRVYYYSFPVIGYASPWAFLVGVKGDIDFTKIDRERAKKLQLEYYDPLMHETLFQMPKYIRETLQRL”, the “soluble on expression in E. coli” value is reported as “soluble”.
With “MKFKTNKLSLNLVLASSLLAASIPAFAVTGDTDQPIHIESDQQSLDMQGNVVTFTGNVIVTQGTIKINADKVVVTRPGGEQGKEVIDGYGKPATFYQMQDNGKPVEGHASQMHYELAKDFVVLTGNAYLQQVDSNIKGDKITYLVKEQKMQAFSDKGKRVTTVLVPSQLQDKNNKGQTPAQKKGN” the “soluble on expression in E. coli” value was “soluble”.
With “MSLKHEQIINEKIIIDTSIFTNPEVYQTFGNDPTDALRSFLEIISKLKGPIFYMPQTIYEELLNFVEIKDIQVDLQMLLQQKSPKRYELTVPAFLLYELIEDVRLRIDKGLRVAETAVRETSPDTEPEAIANLRKKYRMALREGIIDSKEDVDLILLAKEMDGIMMTADTGIVKWADKLGIRYIDPRMLRSILDKLAAASEGHHHHHH” the “soluble on expression in E. coli” value was “soluble”.
With “MPVGRKEQIVDCRAVMGLGEGGGLAQRGTFAEGLRNDVVVVAMSPGRRHITKPVCEITYGIREAGIQTSVLVLDAGGGIPSDAPQGSLGSTFGLKPEEAKQVNRHKLCVIHFGNVKSHIIYKARLFLKYVDIPTIIVCQTPVDMEDFAAIGIKTKNVMPLESKTEGKIVEIITGVIRGESAPQKKIDEIIESIKKHLGLEHHHHHH” the “soluble on expression in E. coli” value was “not soluble”.
For “VAVVLDRQGKVQTVNGLFETELSYSQSEIAGRSLSEMSPPELSGDTHQKRALAAIRDGKHFSGTLRLVSKTGARVWLRTVVVPFKNETGGIEQITLYSSVLT”, the “soluble on expression in E. coli” value was “not soluble”.
In the case of “PREQIIRLHASSGTTGKPTVVGYTANDISNWADLVARSLRAAGLRKGDMIHNAYGYGLFTGGLGAHYGIERLGATVVPMSGGQTEKQVGLITDFKPTGIMVTPSYMLNILEQYHKVGMDPRESSLQVGVFGAEPWTDAMRREVEEAFDMHAVDIYGLSEIMGPGVANECVETKDGPVI”, the “soluble on expression in E. coli” value is reported as “not soluble”.
With “MNNAHEENISSVTGFKSTSGSPAIGSSLPGRSGEGRSSSSSSGSTALLAVVNSTLKAIFSNTLDSIFHMVCTDSDKRLSSEFHCLQSMFNLQLFVNLGCPLS” the “soluble on expression in E. coli” value was “soluble”.
With “LARPKLAVVGSRNASQMGVAAVKKIIQDLSKQFVIISGLARGIDTAAHLASLKSGGATIAVIGTGLDVHYPKENRRLQDYIAKNHLLLSEYEAQSQPLKYHFPERNRIIAGLSQGVMVAEAKIRSGSLITCERAMEEGRDVFVVPGNILDGQSEGCHHLIQEGAKCITSGFDILNEFNF” the “soluble on expression in E. coli” value was “not soluble”.
In the case of QILSIDPLDISQNLAAVNKSLSDALQHLAQSDTYLSAI, the “soluble on expression in E. coli” value is reported as “soluble”.

— the DeepSol protein solubility set
